Measured values taken from patent US20060240001A1 (AGOURON PHARMACEUTICALS, published 2006).
Where a chain is given by its changes, count along the chain named.

B1: 129-1c4 (antibody, V domains shown)
VH: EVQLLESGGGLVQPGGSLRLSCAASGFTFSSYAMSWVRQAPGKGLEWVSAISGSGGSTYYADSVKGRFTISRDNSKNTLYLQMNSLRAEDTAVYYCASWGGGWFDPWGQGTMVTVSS
VL: QSALTQPASVSGSPGQSITISCTGTSNDVGAYNYVSWYQQHPGKAPKLILSEVNKRPSGVSNRFSGSKSGNTASLSISGLQAEDEADYYCSSFTSGSTFMLFGGGTKLTVL
notes: also called parent IgG
B2: 194-a02 (antibody, V domains shown)
VH: not shown
VL: B1 VL with S97L, T98P, F99W, M100V
notes: Tested as IgG converted from scFv
B3: 196-g03 scFv (scFv, V domains shown)
VH: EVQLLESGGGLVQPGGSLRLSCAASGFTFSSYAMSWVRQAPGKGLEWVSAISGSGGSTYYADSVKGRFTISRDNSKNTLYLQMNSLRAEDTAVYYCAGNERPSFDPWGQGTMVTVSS
VL: B1 VL with S91T, F93Y, S95M
notes: Single chain Fv in the assay
B4: g-194-b09 (antibody, V domains shown)
VH: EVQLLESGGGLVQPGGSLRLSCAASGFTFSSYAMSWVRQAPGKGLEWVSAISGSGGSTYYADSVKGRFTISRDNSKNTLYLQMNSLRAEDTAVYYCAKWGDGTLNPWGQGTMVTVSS
VL: B1 VL with I49M, L50I, S76T, S97L, T98P, F99W, M100V, L101V
notes: Tested as IgG
B5: 198-a09 (antibody, V domains shown)
VH: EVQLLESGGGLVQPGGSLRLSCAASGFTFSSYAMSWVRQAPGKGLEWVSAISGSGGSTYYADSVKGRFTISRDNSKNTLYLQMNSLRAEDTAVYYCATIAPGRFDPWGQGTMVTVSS
VL: B1 VL with S13P, S91T, F93Y, S95M
notes: Tested as IgG converted from scFv; also called 198-a09 IgG
B6: scFv variant of 129-1c4 with VH CDR3 SEQ ID NO: 163 and VL CDR3 SEQ ID NO: 43 (scFv, V domains shown)
VH: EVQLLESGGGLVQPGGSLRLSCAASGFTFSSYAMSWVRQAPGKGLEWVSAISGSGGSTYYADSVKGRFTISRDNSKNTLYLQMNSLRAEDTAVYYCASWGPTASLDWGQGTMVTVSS
VL: B1 VL with S91T, F93Y, S95M
notes: His-tagged purified scFv; also called 163 / 43
B7: 194-b09 scFv (scFv, V domains shown)
VH: not shown
VL: B1 VL with S97L, T98P, F99W, M100V, L101V
notes: Single chain Fv in the assay
B8: 194-g09 scFv (scFv, V domains shown)
VH: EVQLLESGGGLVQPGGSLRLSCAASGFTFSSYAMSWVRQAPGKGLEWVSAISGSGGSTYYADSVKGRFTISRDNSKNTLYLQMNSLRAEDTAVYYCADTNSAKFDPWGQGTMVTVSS
VL: B1 VL with Q40R, D87E, F93Y, S95M
notes: Single chain Fv in the assay
B9: g-194-g09 (antibody, V domains shown)
VH: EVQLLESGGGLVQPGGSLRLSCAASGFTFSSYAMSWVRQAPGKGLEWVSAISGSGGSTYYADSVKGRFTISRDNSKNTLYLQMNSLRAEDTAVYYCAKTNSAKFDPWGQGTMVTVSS
VL: B1 VL with I49M, L50I, S76T, F93Y, S95M
notes: Tested as IgG; also called germlined version of 194-g09
B10: g-194-e06 (antibody, V domains shown)
VH: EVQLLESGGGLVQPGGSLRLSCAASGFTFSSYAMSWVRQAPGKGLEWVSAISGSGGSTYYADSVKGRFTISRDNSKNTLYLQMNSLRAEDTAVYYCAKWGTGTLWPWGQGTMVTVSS
VL: B1 VL with I49M, L50I, S76T, S97L, T98P, F99W, M100V
notes: Tested as IgG
B11: g-196-g03 (antibody, V domains shown)
VH: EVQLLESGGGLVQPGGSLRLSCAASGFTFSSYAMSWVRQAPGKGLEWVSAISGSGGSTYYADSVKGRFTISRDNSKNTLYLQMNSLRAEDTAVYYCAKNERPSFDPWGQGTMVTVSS
VL: B1 VL with I49M, L50I, S76T, S91T, F93Y, S95M
notes: Tested as IgG; also called germlined version of 196-g03
B12: scFv variant of 129-1c4 with VH CDR3 SEQ ID NO: 207 and VL CDR3 SEQ ID NO: 291 (scFv, V domains shown)
VH: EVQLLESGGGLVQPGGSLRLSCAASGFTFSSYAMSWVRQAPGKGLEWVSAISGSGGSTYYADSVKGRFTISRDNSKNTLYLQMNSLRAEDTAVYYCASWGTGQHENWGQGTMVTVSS
VL: B1 VL with M100N
notes: His-tagged purified scFv; also called 207 / 291
B13: 196-e06 (antibody, V domains shown)
VH: EVQLLESGGGLVQPGGSLRLSCAASGFTFSSYAMSWVRQAPGKGLEWVSAISGSGGSTYYADSVKGRFAISRDNSKNTLYLQMNSLRAEDTAVYYCAGSRTVQFDPWGQGTMVTVSS
VL: B1 VL with S91T, F93Y, S95M
notes: Tested as IgG converted from scFv; also called 196-e06 IgG

Tests used:
[1] = molecular target: T1, human P-cadherin on the surface of cells (human, UniProt P22223 108-829); assay: epitope competition on A431 cells; competitor: biotinylated 129-1c4 IgG, DELFIA
T1 construct: whole, on cells; also called native P-cadherin on the surface of A431 cells; SW480 cells stably expressing P-cadherin

[2] = molecular target: T1, human P-cadherin on the surface of cells; assay: cell-based or functional assay
[3] = molecular target: T1, human P-cadherin on the surface of cells; assay: cell-based or functional assay; remark: listed apart in the source
[4] = molecular target: T1, human P-cadherin on the surface of cells; assay: cell-based or functional assay; remark: listed apart in the source
[5] = molecular target: T1, human P-cadherin on the surface of cells; assay: cell-based or functional assay; remark: listed apart in the source
[6] = molecular target: T2, recombinant human E-cadherin (R&D Systems 648-EC-100) (human, UniProt P12830 155-707); assay: ELISA on coated antigen, relative KD
T2 construct: Bought protein
T2 sequence (looked up): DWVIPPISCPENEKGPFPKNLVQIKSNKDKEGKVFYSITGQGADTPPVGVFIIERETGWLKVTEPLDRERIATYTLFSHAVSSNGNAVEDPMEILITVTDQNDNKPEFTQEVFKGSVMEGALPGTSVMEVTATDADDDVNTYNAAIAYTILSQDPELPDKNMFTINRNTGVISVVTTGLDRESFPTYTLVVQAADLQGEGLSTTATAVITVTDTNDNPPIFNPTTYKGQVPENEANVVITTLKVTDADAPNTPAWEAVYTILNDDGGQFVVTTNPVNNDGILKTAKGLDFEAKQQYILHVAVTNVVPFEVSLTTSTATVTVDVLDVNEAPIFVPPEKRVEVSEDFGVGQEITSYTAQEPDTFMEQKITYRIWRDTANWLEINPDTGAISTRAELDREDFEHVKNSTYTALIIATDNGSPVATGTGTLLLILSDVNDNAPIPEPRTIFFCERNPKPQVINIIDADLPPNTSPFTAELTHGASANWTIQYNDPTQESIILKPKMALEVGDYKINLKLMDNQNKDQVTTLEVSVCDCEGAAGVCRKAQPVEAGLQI

[7] = molecular target: T3, Recombinant human P-cadherin Fc (R&D Systems 861-PC-100) (human, UniProt P22223 108-654); assay: ELISA on coated antigen, relative KD
T3 construct: also called recombinant human P-cadherin/Fc fusion protein; hCad/Fc; not shown: Fc part of the bought fusion protein

[8] = molecular target: T3, Recombinant human P-cadherin Fc (R&D …); assay: ELISA; KD on E-cadherin over KD on P-cadherin
[9] = molecular target: T4, mouse P-cadherin/Fc fusion protein (mouse, UniProt P10287 100-647, limits assumed); assay: SPR (BIACORE 3000), mCad/Fc immobilised, scFv as analyte, 1:1 fit
T4 construct: also called mCad/Fc; not shown: Fc part of the fusion protein
T4 sequence (looked up): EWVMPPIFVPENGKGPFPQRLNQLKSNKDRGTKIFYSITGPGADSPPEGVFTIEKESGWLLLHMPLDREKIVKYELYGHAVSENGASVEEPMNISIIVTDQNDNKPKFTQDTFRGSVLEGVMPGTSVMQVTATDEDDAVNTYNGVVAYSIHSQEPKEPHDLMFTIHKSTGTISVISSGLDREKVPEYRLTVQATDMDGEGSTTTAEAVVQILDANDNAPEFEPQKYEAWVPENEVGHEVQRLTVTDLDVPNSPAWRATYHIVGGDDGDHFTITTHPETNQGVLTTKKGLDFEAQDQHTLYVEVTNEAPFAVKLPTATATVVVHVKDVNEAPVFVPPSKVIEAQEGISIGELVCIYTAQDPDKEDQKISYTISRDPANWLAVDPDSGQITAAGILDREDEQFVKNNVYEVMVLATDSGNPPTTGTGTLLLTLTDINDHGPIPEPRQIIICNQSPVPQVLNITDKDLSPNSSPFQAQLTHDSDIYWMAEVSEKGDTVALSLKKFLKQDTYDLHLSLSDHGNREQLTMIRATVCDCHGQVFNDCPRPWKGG

[10] = molecular target: T3, Recombinant human P-cadherin Fc (R&D …); assay: SPR (BIACORE 3000), hCad/Fc immobilised, scFv as analyte, 1:1 fit
[11] = molecular target: T1, human P-cadherin on the surface of cells; assay: cell-based or functional assay; remark: listed apart in the source
[12] = molecular target: T1, human P-cadherin on the surface of cells; assay: epitope competition on A431 cells; competitor: biotinylated 129-1c4 IgG at 3x KD, DELFIA
[13] = molecular target: T2, recombinant human E-cadherin (R&D …); assay: ELISA on coated E-cadherin, IgG titrated from 50 nM down to 0.64 nM

Binder | SW480 Spheroid Disruption Assay, Fold Increased Disruption vs Control at 5 nM [2] | SW480 Aggregation Assay Mean IC50 [3] | Kd [6] | Kd [7] | KD(E)/KD(P) [8] | A431 Adhesion Assay Mean IC50 (nM) (n = 2) [11] | other results
B1 | 4 fold | 35 nM |  |  |  |  | IC50 [1]: 29 nM; IC50 in the A431 adhesion assay [4]: 1000 to 3000 nM
B2 | 10 fold | 1.1 nM | 0.682 nM | 0.116 nM | 6 |  | A431 Adhesion Assay Mean IC50 (nM) (n = 3) [5]: 0.217 nM
B3 |  |  |  |  |  |  | Kd [9]: 0.76 nM; koff [9]: 0.00047 s⁻¹; Kd [10]: 1.1 nM; koff [10]: 0.0007 s⁻¹
B4 | 10 fold | 0.9 nM | 2.16 nM | 0.788 nM | 3 | 0.77 nM | 
B5 | 13 fold | 2.9 nM | 19.4 nM | 0.078 nM | 249 |  | A431 Adhesion Assay Mean IC50 (nM) (n = 3) [5]: 0.097 nM
B6 |  |  |  |  |  |  | IC50 [12]: 2.45 nM
B7 |  |  |  |  |  |  | Kd [9]: 11 nM
B8 |  |  |  |  |  |  | Kd [9]: 1.8 nM; koff [9]: 0.00081 s⁻¹; Kd [10]: 2.6 nM; koff [10]: 0.0016 s⁻¹
B9 | 14 fold | 2.6 nM |  | 2.6 nM | > 100 | 1 nM | binding result [13]: no binding (tested: 50 nM)
B10 |  |  | 0.794 nM | 0.191 nM | 4 | 0.77 nM | 
B11 | 13 fold | 0.9 nM | 7.51 nM | 0.449 nM | 17 | 1.05 nM | 
B12 |  |  |  |  |  |  | IC50 [12]: 2.73 nM
B13 | 10 fold | 1.9 nM | 0.187 nM | 0.062 nM | 3 |  | A431 Adhesion Assay Mean IC50 (nM) (n = 3) [5]: 0.117 nM
